Molecular target: PDGF-BB (UniProt P01127 82-190)
Test: microcantilever deflection

Chain of PDGF-BB (P01127 82-190): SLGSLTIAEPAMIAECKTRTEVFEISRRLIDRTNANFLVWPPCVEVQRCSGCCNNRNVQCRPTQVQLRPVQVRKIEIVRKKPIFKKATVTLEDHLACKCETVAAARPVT

B1: PDGF aptamer (thiolated) (structured_DNA)
DNA: CACAGGCTACGGCACGTAGAGCATCACCATGATCCTGTG
modifications: thiol (HS-aptamer; printed as 3'T after the sequence), immobilized on Au-coated cantilever
  binding result: binds
